From publication PMC9051516 come the findings set out here.

Test [1] concerns the target TGBp1-cYFP (cowpea mild mottle virus triple gene block protein 1 fused to the C-terminal half of YFP) (cowpea mild mottle virus (isolate CPMMV_AH_SZ)). In words: split reporter (BiFC, NanoBiT); BiFC of the TGBp1 and TGBp3 YFP halves with TGBp2-Flag co-expressed in N. benthamiana leaves; confocal microscopy 48 h after infiltration; mean intensity of whole images by ImageJ.

Test [2] shares this target. In words: split reporter (BiFC, NanoBiT); BiFC: nYFP and cYFP fusions co-expressed by agroinfiltration in N. benthamiana leaves; YFP signal by confocal microscopy 48 h after infiltration; mean intensity of whole images by ImageJ.

For the substance “TGBp3-nYFP (cowpea mild mottle virus triple gene block protein 3 fused to the N-terminal half of YFP) (natural protein)”, the mean fluorescence intensity of the BiFC signal, with TGBp2-Flag co-expressed in test [1] amounted to 95.9. The substance also came in with a mean fluorescence intensity of the BiFC signal, without TGBp2-Flag in test [2] of 75.7.
